These results are taken from patent publication US20050002935A1.

The assay concerns the target B7-H3 receptor on human CD4+ T cells (human). Briefly: cell-based or functional assay.

B1: human B7-H3 VC (expressed on CHO.HLA-DR2 transfectants) (ligand)
chain: LEVQVPEDPVVALVGTDATLCCSFSPEPGFSLAQLNLIWQLTDTKQLVHSFAEGQDQGSAYANRTALFPDLLAQGNASLRLQRVRVADEGSFTCFVSIRDFGSAAVSLQVAAPYSKPSMTLEPNKDLRPGDTVTITCSSYRGYPEAEVFWQDGQGVPLTGNVTTSQMANEQGLFDVHSVLRVVLGANGTYSCLVRNPVLQQDAHGSVTITGQPMTFPPEALWVTVGLSVCLIALLVALAFVCWRKIKQSCEEENAGAEDQDGEGEGSKTALQPLKHSDSKEDDGQEIA
B1: the GM-CSF level reduced relative to GFP controls (multiplex ELISA, 72 h) was 65%; the IFN-γ level reduced relative to GFP controls (multiplex ELISA, 72 h) amounted to 85%; the IL-10 level reduced relative to GFP controls (multiplex ELISA, 72 h) was determined as 81%; the TNF-α level reduced relative to GFP controls (multiplex ELISA, 72 h) was determined as 69%.

B2: human B7-H3 VCVC (expressed on CHO.HLA-DR2 transfectants) (ligand)
chain: LEVQVPEDPVVALVGTDATLCCSFSPEPGFSLAQLNLIWQLTDTKQLVHSFAEGQDQGSAYANRTALFPDLLAQGNASLRLQRVRVADEGSFTCFVSIRDFGSAAVSLQVAAPYSKPSMTLEPNKDLRPGDTVTITCSSYQGYPEAEVFWQDGQGVPLTGNVTTSQMANEQGLFDVHSILRVVLGANGTYSCLVRNPVLQQDAHSSVTITPQRSPTGAVEVQVPEDPVVALVGTDATLRCSFSPEPGFSLAQLNLIWQLTDTKQLVHSFTEGRDQGSAYANRTALFPDLLAQGNASLRLQRVRVADEGSFTCFVSIRDFGSAAVSLQVAAPYSKPSMTLEPNKDLRPGDTVTITCSSYRGYPEAEVFWQDGQGVPLTGNVTTSQMANEQGLFDVHSVLRVVLGANGTYSCLVRNPVLQQDAHGSVTITGQPMTFPPEALWVTVGLSVCLIALLVALAFVCWRKIKQSCEEENAGAEDQDGEGEGSKTALQPLKHSDSKEDDGQEIA
On to B2, for which the GM-CSF level reduced relative to GFP controls (multiplex ELISA, 72 h) is 65%; the IFN-γ level reduced relative to GFP controls (multiplex ELISA, 72 h) amounted to 85%; the IL-10 level reduced relative to GFP controls (multiplex ELISA, 72 h) was determined as 81%; the TNF-α level reduced relative to GFP controls (multiplex ELISA, 72 h) was 69%.
